{
  "source": "patent US6699969B1",
  "about": "“Assays for the detection of microtubule depolymerization inhibitors” (The Regents of the University of California, priority 1998, dated 2004)",
  "key": {"[1]": {"system": "Taxol-stabilized, rhodamine-labeled microtubules", "experiment": "Microscope-based microtubule severing assay", "type": "biochemical", "method": "Microscope-based severing assays were performed using previously published procedures (McNally and Vale (1993) Cell, 75: 419-429), except that microtubules were immobilized by first perfusing flow cells with a bacterially expressed kinesin mutant that binds strongly to microtubules but is unable to hydrolyze ATP (K560, G234A mutant; R. Vale and E. Taylor, unpublished results). Assays were performed in 20 mM Hepes (pH 7.5), 2 mM MgCl2, 1 mM ATP with an oxygen scavenger system consisting of glucose oxidase (220 μg/ml), catalase (36 μg/ml), glucose (22.5 mM), and 2-mercaptoethanol (71.5 mM). Images were captured using a cooled, slow-scan CCD (Photometerics) and processed using Adobe Photoshop."}, "[2]": {"experiment": "ATPase assay (modified malachite green method)", "type": "biochemical", "method": "(§1) ATPase activity was measured by a modified malachite green method (Kodama et al. (1986) J. Biochem. 99: 1465-1472). ATPase reactions of 50-100 μL were carried out in a buffer previously used for measuring the ATPase activity of native katanin [20 mM K-HEPES pH 8.0, 25 mM K-Glutamate, 2 mM MgCl2, 10% glycerol (v/v), 0.02% Triton X-100 (w/v), 1 mg/ml BSA] (McNally and Vale (1993) Cell, 75: 419-429), except that soybean trypsin inhibitor (SBTI) was replaced by BSA as a carrier protein because SBTI increased background phosphate contamination. An ATP regenerating system consisting of 0.5-1.0 mM phospho-enol pyruvate and 2U pyruvate kinase was included to minimize the inhibition by ADP observed previously for native katanin (McNally and Vale (1993) Cell, 75; 419-429). Microtubules were prepared from bovine brain tubulin (Hyman el al. (1 990) Meth. Enzymol. 196: 303-319; Williams and Lee (1982) Meth Enzymol. 85B: 376-385). After assembly, microtubules were sedimented (230,000×g; 10 min), resuspended in ATPase buffer lacking BSA, and the polymers were resuspended by repeated passage through a 27 gauge needle. Microtubule concentration was determined by measuring the absorbance at 275 nm in 6M guanidine HCl by using a molecular mass of 110 kDa and an extinction coefficient of 1.03 ml*mg^−1*cm^−1 (Hackney (1988) Proc. Natl. Acad. Sci. USA, 85: 6314-6318). […]"}, "[3]": {"system": "microtubules", "experiment": "DAPI fluorescence microtubule disassembly (severing) assay", "type": "biochemical, bovine", "conditions": "2 μM microtubules, FIG. 5C", "method": "as §1, with “Microtubules were prepared from bovine brain tubulin (Hyman el al. (1 990) Meth. Enzymol. 196: 303-319; Williams and Lee (1982) Meth Enzymol. 85B: 376-385). After assembly, microtubules were sedimented (230,000×g; 10 min), resuspended in ATPase buffer lacking BSA, and the polymers were resuspended by repeated passage through a 27 gauge needle.” left out\nDAPI severing assays were performed using conditions where the change in fluorescence intensity was linear with the amount of tubulin polymer added (Heusele et al. (1987) Eur. J. Biochem. 165: 613-620). […] The reaction volume was 80 μL, and. fluorescence intensity was measured by exciting at 370 nm and measuring the emission at 450 nm using a model 8100 fluorimeter. […]"}, "[4]": {"conditions": "literature values; cited from earlier work"}},
  "data": [
    {"molecule": "p80: S. purpuratus katanin 80 kDa subunit, 690 a.a. polypeptide with six WD40 repeats (SEQ ID NO: 2) (protein, listed as Strongylocentrotus purpuratus, katanin p80 subunit) MATKRAWKLQELVAHSSNVNCLALGPMSGRVMVTGGEDKKVNLWAVGKQNCIISLSGHTSPVDSVKFNSSEELVVAGSQSGTMKIYDLEPAKIVRTLTGHRNSIRCMDFHPFGEFVASGSTDTNVKLWDVRRKGCIYTYKGHSDQVNMIKFSPDGKWLVTASEDTTIKLWDLTMGKLFQEFKNHTGGVTGIEFHPNEFLLASGSSDRTVQFWDLETFQLVSSTSPGASAVRSISFHPDGSYLFCSSQDMLHAFGWEPIRCFDTFSVFWGKVADTVIASTQLIGASFNATNVSVYVADLSRMSTTGIAQEPQSQPSKTPSGGAEEVPSKPLTASGRKNFVRERPHTTSSKQRQPDVKSEPERQSPTQDEGVKDDDATDIKDPDSYAKIFSPKTRVDHSPERNAQPFPAPLDVPGAQEPEPFKHPPKPAAAAAVAPVSRAPAPSASDWQPAQANPAPNRVPAATKPVPAQEVAPSRKPDPISTIIPSDRNKPANLDMDAFLPPAHAQQAPRVNAPASRKQSDSERIEGLRKGHDSMCQVLSSRHRNLDVVRAIWTAGDAKTSVESVVNMKDQAILVDILNIMLLKKSLWNLDMCVVVLPRLKELLSSKYENYVHTSCACLKLILKNFTSLFNQNIKCPPSGIDITREERYNKCSKCYSYLIATRGYVEEKQHVSGKLGSSFRELHLLLDQLE", "values": [
      {"measurement": "microtubule severing", "setting": "[1]; concentrations 5-fold higher than those used for p60 (0.5 μM)", "value": "unable to sever microtubules"},
      {"measurement": "ATPase activity", "setting": "[2]; baculovirus-expressed subunit alone", "value": "no detectable ATPase activity"},
      {"measurement": "change in DAPI fluorescence", "setting": "[3]", "value": "did not cause a change in fluorescence"}
    ]},
    {"molecule": "p60: S. purpuratus katanin 60 kDa subunit, 516 a.a. AAA ATPase (SEQ ID NO: 1), baculovirus-expressed with N-terminal His(6) tag (protein, listed as Strongylocentrotus purpuratus, N-terminal His6 tag; katanin p60 subunit) MSVDEICENTKMGREYALLGNYETSLVYYQGVLQQIQKLLTSVHEPQRKHQWQTIRQELSQEYEHVKNITKTLNGFKSEPAAPEPAPNHGRAAPFSHHQHAAKPAAAEPARDPDVWPPPTPVDHRPSPPYQRAARKDPPRRSEPSKPANRAPGNDRGGRGPSDRRGDARSGGGGRGGARGSDKDKNRGGKSDKDKKAPSGEEGDEKKFDPAGYDKDLVENLERDIVQRNPNVHWADIAGLTEAKRLLEEAVVLPLWMPDYFKGIRRPWKGVLMVGPPGTGKTMLAKAVATECGTTFFNVSSASLTSKYHGESEKLVRLLFEMARFYAPSTIFIDEIDSICSKRGTGSEHEASRRVKSELLIQMDGVSGPSAGEESSKMVMVLAATNFPWDIDEALRRRLEKRIYIPLPEIDGREQLLRINLKEVPLADDIDLKSIAEKMDGYSGADITNVCRDASMMAMRRRIQGLRPEEIRHIPKEELNQPSTPADFLLALQKVSKSVGKEDLVKYMAWMEEFGSV", "values": [
      {"measurement": "time until microtubules were completely disassembled", "setting": "[1]; 0.1 μM protein", "value": 5, "unit": "min"},
      {"measurement": "microtubule concentration at peak stimulation of ATP turnover", "setting": "[2]", "value": "~2", "unit": "μM tubulin"}
    ]},
    {"molecule": "p97: AAA ATPase cited for comparison (Peters et al. 1992) (protein, UniProt P23787 1-805, looked up) Transitional endoplasmic …: MASGSDTKSDDLSTAILKQKSRPNRLIVDESINEDNSMVSLSQAKMDELQLFRGDTVLLKGKKRREAVCIVLSDDTCSDEKIRMNRVVRNNLRVRLGDVISIQPCPDVKYGKRVHVLPIDDTVEGITGNLFEVYLKPYFLEAYRPIRKGDIFLVRGGMRAVEFKVVETDPSPYCIVAPDTVIHCEGEPIKREDEEESLNEVGYDDIGGCRKQLAQIKEMVELPLRHPALFKAIGVKPPRGILLYGPPGTGKTLIARAVANETGAFFFLINGPEIMSKLAGESESNLRKAFEEAEKNAPAIIFIDELDAIAPKREKTHGEVERRIVSQLLTLMDGLKQRAHVIVMAATNRPNSIDPALRRFGRFDREVDIGIPDSTGRLEILQIHTKNMKLSDDVDLEQVANETHGHVGADLAALCSEAALQAIRKKMDLIDLEDETIDAEVMNSLAVTMDDFRWALSQSNPSALRETVVEVPQVTWEDIGGLEDVKRELQELVQYPVEHPDKFLKFGMTPSKGVLFYGPPGCGKTLLAKAIANECQANFISIKGPELLTMWFGESEANVREIFDKARQAAPCVLFFDELDSIAKARGGNIGDGGGAADRVINQILTEMDGMSIKKNVFIIGATNRPDIIDPAILRPGRLDQLIYIPLPDEKSRMAILKANLRKSPVAKDVDVDFLAKMTNGFSGADLTEICQRACKLAIRESIENEIRRERDRQTNPSAMEVEEDDPVPEIRRDHFEEAMRFARRSVSDNDIRKYEMFAQTLQQSRGFGSFRFPAGGQSGAGPSPGAGGGSGGGHFTEEDDDLYG", "values": [
      {"measurement": "ATPase activity of other AAA proteins", "setting": "[4]", "value": 1, "unit": "ATP/sec"}
    ]}
  ]
}
